Source: publication PMC4223078
Where a chain is given by its changes, count along the chain named.

Key:
Test in all cases: EMSA
Details in all cases: 10 nM DNA in 15 mM HEPES pH 7.9, 40 mM KCl, 1 mM EDTA, 0.5% DTT, 5% glycerol, 30 min (incubation temperature not stated); 6% native PAGE in TAE at 4 C, SYBR …
[1] = molecular target: T1, H-NS (6His) (Salmonella enterica serovar Typhimurium 14028s?) (UniProt A0A0F6B244)
T1 sequence: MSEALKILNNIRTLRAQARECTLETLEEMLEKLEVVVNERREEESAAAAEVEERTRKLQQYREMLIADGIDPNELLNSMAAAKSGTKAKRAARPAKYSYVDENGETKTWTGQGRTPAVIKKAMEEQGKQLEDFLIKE

[2] = molecular target: T2, StpA A77D A77D (Salmonella enterica serovar Typhimurium 14028s) (UniProt A0A0F6B5K2)
T2 sequence: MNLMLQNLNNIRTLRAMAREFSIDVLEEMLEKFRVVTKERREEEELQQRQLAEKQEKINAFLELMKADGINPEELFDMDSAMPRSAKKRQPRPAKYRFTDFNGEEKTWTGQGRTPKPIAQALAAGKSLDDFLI

[3] = molecular target: T3, StpA M4T M4T (Salmonella enterica serovar Typhimurium 14028s) (UniProt A0A0F6B5K2)
T3 sequence: T2 sequence with M4T, D77A

[4] = molecular target: T4, StpA T37I T37I (Salmonella enterica serovar Typhimurium 14028s) (UniProt A0A0F6B5K2)
T4 sequence: T2 sequence with T37I, D77A

[5] = molecular target: T5, StpA WT (Salmonella enterica serovar Typhimurium 14028s) (UniProt A0A0F6B5K2)
T5 sequence: T2 sequence with D77A

Measured: binding

CTCTCTCTGCACCAGGATATACGGCAGCGTCCATTCGATAATCACAGTTAGTTATAACAATATTATTACCAACATGTCAGTTATTTAAAGCACAGGCATAAGCTAAATAATCAAATGTTAAAAACATATAAACCCGAGCCCGTAGAATATGACATTAAGCTCATAATAAAAGCTCAACCTGACCGTTAGTACTAACAGCAGAATTACTGAAACAGTAGATTCTATCCTAACGACTTGTATTAGTTATTATAACTTTTCACCCTGTAAGAGAATACACTATTATCATGCC (double strand) [hilA 289 bp fragment]
binds: all assays above
